The nature of this data set: label from the status in PepcDB records.
Turning to “MAAGRHCRAPHRCQTHPRLIALGHNHRMNAQLTQELPEFPTWLNARPSTLQEHRGRALVLAFVNASSVWCAERLAELAHWQARSPGRLQVIVVQVPRFDSERLPQRSLKQLRGHGVSAPILLDKDWETWRRFGIESWPTLVLLDAYGRERQRLVGVTGDLDKALTALCEGQPPPSDADLHGVAEREPEPHLALRFPTGLAATEDRLYVADTGHHRVLECTHSGRVLRQFGHGNADLIDGGVGEAAFRRPQGLALERDQLYVADTGNHALRRINLRSGQVDTLCGTGRSGEPVEGPLASPGGSALNYPQGLAIADNQVLIAMAGDNRIWSYHLGRAALTARAGTGALEIRDGSGHLAAFAQPAGLASVQQVAYVCDGLGSSIRTMQLRGDLVQTLVGGQGTWQFGDQDGPRSTARLQFPQAIALAADSPLLWIADTGNGRLRCLRLGGGELTTVALPRRLHGPAGLAVAAGAVWIAETDAHAILRYDLASGALSDVSIDE”, the protein production result is on record as “failed”.
Take “MKTIKDWQINICLATYNGQKYLRQQLDSIIQQGYTDWICLIRDDGSTDDTVAIIKEYVNRDSRFIFINSNDDRKLGSHRSFYELVNYKKADFYVFSDQDDVWKENRLERYLEEAEKFNQELPLLVYSNWTSVDEKLTVLKEHNPATVIQEQIAFNQINGMVIMMNHELAKLWEYRQIGAHDSYVGTLAYAVGNVAYISDSTVLWRRQVGAESLNNYGRQYGVATFWQMINTSFDRASLIFAQVSDKMSLERKLFFSRFIELKNANLMRRIYLLSKLKLRRKSLKETVAMTILLLTGYGKPKALEHHHHHH”: the protein production result was “not failed”.
As to “TLRNYPLTCKVVYSYKASQPDELTIEEHEVLEVIEDGDMEDWVKARNKVGQVGYVPEKYLQFPTS”, the protein production entry is reported as “not failed”.
Take “MNCIPQYYKNRVCLNVLAGSIKNAKEVYDACDGHVLIGVLSKNYSTVEAAIEDMKKYSKEIDNAISVGLGAGDPNQSNMVSQISKELQPQHINQVFTGVATSRALLGQNYSIINGLVSPTGKPGFVKISTGPLSSKEKDGIVPIETAIAMMKDMGGSSIKFFPMGGLKTKDEYIEVAKACAKHNFYLEPTGGIDLDNFKEIVQIALDAGVEKVIPHVYTSIIDKETGETKVEDIGVLYKIMKELLG”: the protein production entry is given as “not failed”.
Regarding “MEKYILSIDQGTTSSRAILFNQKGEIAGVAQREFKQYFPQSGWVEHDANEIWTSVLAVMTEVINENDVRADQIAGIGITNQRETTVVWDKHTGRPIYHAIVWQSRQTQSICSELKQQGYEQTFRDKTGLLLDPYFAGTKVKWILDNVEGAREKAENGDLLFGTIDTWLVWKLSGKAAHITDYSNASRTLMFNIHDLEWDDELLELLTVPKNMLPEVKASSEVYGKTIDYHFYGQEVPIAGVAGDQQAALFGQACFERGDVKNTYGTGGFMLMNTGDKAVKSESGLLTTIAYGIDGKVNYALEGSIFVSGSAIQWLRDGLRMINSAPQSESYATRVDSTEGVYVVPAFVGLGTPYWDSEARGAIFGLTRGTEKEHFIRATLESLCYQTRDVMEAMSKDSGIDVQSLRVDGGAVKNNFIMQFQADIVNTSVERPEIQETTALGAAFLAGLAVGFWESKDDIAKNWKLEEKFDPKMDEGEREKLYRGWKKAVEATQVFKTE”, the protein production result was “failed”.
Regarding “GHMSPGERFLDWLKRLQGQKAWTAARAAFRRSLAFPPGAYPRAMPYVEPFLAKGDWRQEEREAHYLVAALYALKDGDHQVGRTLARALWEKAQGSASVEKRFLALLEADRDQIAFRLRQAVALVEGGIDFARLLDDLLRWFSPERHVQARWAREYYGAGASEEEKKKEVEA”, the protein production entry is reported as “not failed”.
Take “MERKFMSLQPSISVSEMEPNGTFSNNNSRNCTIENFKREFFPIVYLIIFFWGVLGNGLSIYVFLQPYKKSTSVNVFMLNLAISDLLFISTLPFRADYYLRGSNWIFGDLACRIMSYSLYVNMYSSIYFLTVLSVVRFLAMVHPFRLLHVTSIRSAWILCGIIWILIMASSIMLLDSGSEQNGSVTSCLELNLYKIAKLQTMNYIALVVGCLLPFFTLSICYLLIIRVLLKVEVPESGLRVSHRKALTTIIITLIIFFLCFLPYHTLRTVHLTTWKVGLCKDRLHKALVITLALAAANACFNPLLYYFAGENFKDRLKSALRKGHPQKAKTKCVFPVSVWLRKETRV”: the protein production entry is listed as “failed”.
Regarding “MRGVRLLAVIGLVLGGLVLSGRPAQAQYAQDSLAFDLEHVFDLEYAADPQISPSGDRVVYARTVMDKMDDRRASRLWAVNADGSGHRPITAPETNASQPRWSPSGDRVAYVASTEGDGAEVFVRWMDTGQTARITQLEESPSGLSWGPEGDRLAFSMFVPAEPEPFARMPSPPEGADWAERPDVIDQTYYRSDGGGYTERGHTQLFVVSASGGTPRQITTGPYDHGGAPTWTPDGETLLISANRHADRRLDPLNTEVYAVDVASGAVTALTTRQGPDGDVALSPDGSTIAYTGFDDREQGYQVTKLYVMDRDGTNARLLTEGFDRDVQNPTFTADGEHIVFRYVDEGSTKIGRVALDGGRRVVAEHVGGTSIGRPYTSGSFSLASNGRVAFTHATPQRPADVAVAQAGREAQVLTALNDDLFGQVDLGSVEQITYESSHDGRTIEGWIVTPPGFDASQEYPLVLEIHGGPFASYGPYFSAEVQLYAAAGYVVLYTNPRGSTSYGQDFGNAIHHDYPGHDYDDLMSGVDAVLERGYVDADRLYVTGGSGGGVLTSWIVGHTDRFRAAVAAKPVINWYSWALTADMYPYGVKYWFPGLPWNHEEHYMDRSPLSYVDNVTTPTMLLTGANDYRTPMSESEQFYQALKLREVETALVRVPGASHSIAARPSHLAAKAAHVLEWFRRHGGPTPEQ”, the protein production result is recorded as “failed”.
Turning to “MSDTRRCVVIPAVKKNAVIPDQLVKRLAGVTLIQRAIDTAKALAPGDDIVVVTDSQEIALICERNGVRHVCNPGLHLATLDIVRELRGVLEDLARSYGHIVIYRASCPLLTADDIEDAYATFLREGADCLVTVKSVRHRVWEKRNGGLDALLSQDETEPSIYVESKALVMLDASALTRGEVRKVVPYFLNDRAIEINSYQDWWICEKLLCRKHIVFVVAGYPAIGMGHIFRALMLAHEVADHRITFLCTRESELAASNIAARDYRTRVQQGDDLAADVLSLRPDLVINDILNTDADYVGRLREAGVRVVNFEDEGPGAHLADLVVNALYEEKVDDPRFLHGHRFFCLRDEFVNGVRNDYRDPVRCVLVTFGGTDHSDFSRGTLDAIEPLCRERGITIRLVAGPGYAHKDAMQEHVERLGSPLVEFTYATNVMSRMMEGADLAICSAGRTVYELAHMRVPAIVMAHHEREGRHTFARGRNGFAYLGVMEHFDGAKLTRVFTQLLDAGNRRRLFDRQARFDFIRNKADVVRRITALLDDTPAPENA”, the protein production result is “failed”.
On to “MRALALICVVWVCWRESCARHGTEDSSESGLRYAYTLVVDGTANTRRCFGTGHVDGEAFVGYSNNKTHGIGRWVNASHVEEENKEFVRQCKELQAELDKMQNNSKVIGVKTVQLDVGCTSKIEKHYAYDGNETEDDTATSASERDRDCQKKLTEYRKLVLASAVSPQLEVERRSSGREGGMRLRCFARDYYPADLEIRWWKDDGGGGALPQTSKQHHDPLPSGNGLYQKHIDVYVDGGLEHVYSCRVKGIATGLELQIVRWKGYARGAGNSVVLLALFIPASVMAAVVVGSVLIRKKSKEQRKTRRRFGRRSGHEPKRPSYQVKRRAEPPCDLPMTIWFRGDNVMSTQVEACPAYAVTMSARELSDAWSNGDGPIVTVPDPSI”, for which the protein production entry was “not failed”.
Next, “MGLGSSNRQTDDWNAKLYDERHRFVSAYGEDLIQWLAPKEGECVLDLGCGTGDLTEQIHQLGSRVIGVDVSESMIEQAKGKFPHLDFQVAEATDLSFSEKFDAIFSNAVLHWIKDAEEALTVIYRSLKPGGRFVAEFGGKGNVETIVNTLADTMSQADSRWSKEELPWFFPSIGQYTSLMEQVGFRVTHALHFNRPTLLEDGDGIRHWLAMFAESVLEGKSETERAEIVRFVEAEVKDALFDGTNWWADYKRIRVVGMKQL”: “failed”.
Then “MGSVLVDLQIATENIEGLPTEEQIVQWATGAVQPEGNEVEMTVRIVDEAESHELNLTYRGKDRPTNVLSFPFECPDEVELPLLGDLVICRQVVEREASEQEKPLMAHWAHMVVHGSLHLLGYDHIEDDEAEEMESLETQIMQGLGFDDPYLAEK”, with “not failed”; and “MVTIPIFLAIIGATMMVVVWSAKQTKSAADFYTAGGGITGTQNGWAIAGDYMSAASFLGISGIISLYGYDGFMYSVGWLVAYITVLLIVAEPCRNAGKFTLGDILSFRTEPKSVRAAAAISTVAVSTFYLTAQMVGAGKLMQLLLGIPYKTAVIGVGILMVGYVVFGGMTATTWVQIIKAGLLMSGAALLSVLVGLKSGMSPFQFFNDIATSPNIIEHVQKVVLKDPVAVAGFDYGQRFLEPGLFLKNPLDQISLGMALVLGTAGMPHILMRFFTVPTAQAARKSVIIAMFIIGSFYILTTLLGFGAAIHVTPQSIMNVDKGGNMAAMMLAQQLGGDIHPFLGDLLLAFLCAVAFATILAVVSGLVLAASAAIAHDIYVNVIKGGHADQHEQVKAARITSFVVGACGIAIGIAAEKQNVAHLVALAFAVAASGNLPVVVLSLFWKKFNTAGVIAGLVTGTVVSIALVMVSPNMTYPKKVAEDAQKVVVKLEEKQAGGAVLTEKEMKDLGKAKADYEKNKDGKSFLGLDKPLFALKNPGVVSIPLGFIAAVIAALAFPSRRSEEMFDELYVRQNTGIGIAKAVDH”, with “failed”.
Then “MISVFDIYKIGVGPSSSHTVGPMKAGKEFIDDLRAMGKLRDITKITVDVYGSLSLTGKGHHTDIAIIMGLAGNSPEKVDIDSIPGFIARVEETERLPVGMHCHTVSFPREGGMNFHKTNLELHENGMQIHAWIDDEKVYSKTYYSIGGGFIVDEENFGK”, with “not failed”; and “SAAVGAEARGAWCVPCLVSLDTLQELCRKEKLTCKSIGITKRNLNNYEVEYLCDYKVVKDMEYYLVKWKGWPDSTNTWEPLQNLKCPLLLQQFSNDKHNYLSQVITSEEAERRGQFYDNKGITYLFDLDYESDEFTVDAARYGNVSHFVNHSCDPNLQVFNVFIDNLDTRLPRIALFSTRTINAGEELTFDYQMKGSGDISSDSIDHSPAKKRVRTVCKCGAVTCRGYLN”, with “failed”.
Turning to “MTLTLLLLIFILISFISALTIIFITVKKGIFFNRLYLQSIIVCILFFTNWILYLSTFYALLPEKISEFLFLPIWFFLCILSFITFWREWRNNRVFSICIGFLSFISFLFVLFLLVLSGM”, the protein production entry is on record as “failed”.
Next, “MTEFPKILMVLGAVIFGIGLFMQVIGRLPGDIFVKKGNVTFFFPVVTCIVISIILSVVFSFFGRMK”: “failed”.
Regarding “MDAVVVLCYLLLALPTIIPSVVDGKWLVVAILLLIAIALFFRRPFPLQVVLAVSLLEIAATILNPWGSNVSAGLWFALYAVASLRKRALALVVFAVASLPLSLLYLFMWTSPSEMDNLQDVPENFHLINNIATAVTIMLSNLLATGIGISVRQRREHEAEIAAWAARTTQLGKVTERNRIAREMHDVVAHSLTVMISLSDGAAVVVKKDPERAGDVLGELSRTGRAALADMRRVLGVLRDDSGRPAPLTPLESGQNLAKLLDGFRTAGLPLHYAHTGPGLPADPAFELTVYRIVQESLTNVLRYGRSLSRVDVQVARDGDLVTIDVLDDGRGTREGGSESVGSLGTGQGIAGMNERAGIYAGIVTAGPGKRGGWAVHAELRWNGEKGES”, the protein production result is listed as “failed”.
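Note: failed if final PepcDB status was selected cloned or expressed and not failed if soluble or beyond.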
